Measured values published in patent publication US20020142982A1, “Method for regulating angiogenesis” (priority 1999, published 2002).

Target: HA-tagged wild-type Akt (UniProt P31749)
Test: cell-based or functional assay

In the case of “T236A EDG-1 mutant receptor (from UniProt P21453 1-382)”, the restoration of S1P-induced HUVEC chemotaxis by increasing wild-type Akt virus is reported as 65%.
